According to the supplement of paper PMC10567573:

B1: MLL5 (parent)
chain: TYLCERCQPRNLDKERAVLLQRRK

Variants of: B1
Experiment: protein stability index of a GFP-peptide fusion (GPS, HEK-293T) (PSI 1-6); higher = more stable
Settings: c terminus: a fixed tail appended
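Note: lentivirally expressed fusions sorted by FACS into six bins by GFP to DsRed ratio, PSI derived from sequencing read proportions per bin multiplied by bin number.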

Protein stability index: each site, then its substitutions
T1: E 1.47, F 1.27, G 1.82, H 2.18, I 1.93, K 2.48, M 1.39, N 2.13, Q 2.14, R 2.76, S 1.87, V 1.5, W 3.05, Y 2.14
Y2: C 1.76, D 2.78, E 2.4, G 2.78, H 2.58, I 2.77, K 3.44, L 2.78, M 2.53, N 2.43, P 3.19, Q 3.53, R 2.88, T 2.41, V 2.16, W 2.76
L3: A 2.33, C 1.45, D 2.99, E 3, F 1.82, G 2.85, H 2.44, I 1.55, K 2.83, M 2.02, N 3.55, P 2.31, Q 2.42, R 2.16, S 2.18, T 1.98, V 2.17, W 1.96, Y 2.56
C4: A 4.43, D 4.22, E 4.31, F 2.61, G 3.83, H 3.36, I 1.54, K 3.15, L 2.71, M 3.52, N 3.9, P 4.26, Q 3.56, R 3.67, S 3.95, T 4.07, V 3.12, W 2.6
E5: A 1.91, C 1.63, D 2.87, F 1.94, G 2.28, H 2.12, I 2.47, K 1.79, L 1.73, N 1.94, Q 1.76, S 2.23, T 1.61, V 3.05, W 2.4
R6: C 2.2, D 2.93, E 3.87, F 1.79, G 4.25, H 1.87, I 2.07, K 1.59, L 1.49, M 1.81, N 2.81, P 3.84, Q 2.53, S 2.83, T 1.92, V 2.42, W 1.53, Y 2.83
C7: A 4.59, D 4.49, E 4.89, F 3.27, G 3.59, H 3.12, I 3.76, K 3.34, L 3.12, M 3.2, N 3.93, P 3.94, Q 3.65, R 4.03, S 4.63, T 4.37, V 3.32, W 3.6
Q8: A 2.74, C 1.38, D 2.8, E 2.42, F 2.29, G 2.36, I 1.79, K 2.05, L 1.93, M 1.67, N 1.55, P 3.38, R 2.44, S 1.14, T 2.72, V 1.9, W 4.94, Y 1.5
P9: A 1.86, C 2.76, D 2.32, E 3.09, F 2.15, G 2.68, H 1.97, I 1.91, L 2.69, M 2.08, N 3.62, Q 3.16, R 2.35, S 2.27, T 2.81, V 2.36, Y 3.52
R10: A 2.28, C 2.54, D 2.25, E 1.99, F 2.28, G 3.56, H 1.72, I 2.25, K 1.74, L 1.83, M 2.25, N 2.84, P 2.67, Q 2.48, S 2.44, T 2.29, V 2.17, W 1.66, Y 2.04
N11: A 2.05, C 2.11, D 2.02, E 1.52, F 1.9, G 2.42, H 2.82, I 1.68, K 2.05, L 2.12, M 2.04, P 2.18, Q 2.41, R 2.15, S 2.32, T 3.08, W 2.09, Y 1.43
L12: A 2.56, C 1.85, D 2.01, E 3.2, F 2.11, G 2.71, H 1.98, I 2.17, K 2.96, M 3.49, N 2.25, P 2.69, Q 3.79, R 2.02, T 2.63, V 2.22, W 1.61, Y 1.71
D13: A 2.7, C 2.24, E 3.13, F 1.78, G 2.71, H 2.64, I 2.23, K 2.71, M 2, N 2.47, P 1.92, Q 2.53, S 2.76, V 1.88, W 2.16, Y 2.48
K14: A 2.29, C 1.93, D 1.98, F 2.34, G 1.77, H 1.74, I 1.87, L 3.62, M 3.36, N 2.29, P 1.96, Q 2.23, R 2.19, S 2.51, T 3.29, V 3.34, W 2.89, Y 2.64
E15: C 1.45, D 2.42, F 2.14, G 2.71, H 2.71, I 2.2, K 3.21, L 2.05, N 1.6, P 2.12, Q 2.24, R 2.34, S 2.46, T 2.32, W 1.94
R16: A 2.49, C 1.45, E 1.92, F 2.09, G 2.32, H 2.61, I 1.94, K 2.1, L 3.06, M 3.23, N 2.01, P 2.24, S 1.36, T 2.25, V 2.27, W 1.69, Y 1.79
A17: C 2.08, D 2.25, F 2.07, G 1.78, H 2, K 2.26, L 1.45, M 2.58, N 2.65, P 1.77, Q 1.88, S 2.32, T 1.95, V 2.42, W 2.16, Y 2.18
V18: A 1.81, C 2.11, D 2.73, E 2.52, F 1.96, H 2.16, I 2.68, L 3.05, M 2.19, N 1.93, P 1.6, Q 2.19, R 3.18, S 2.21, T 2.82, W 2.2, Y 1.65
L19: A 1.76, C 2.03, D 2.42, E 2.76, F 1.7, G 3.37, H 2.54, K 2.18, M 2.71, N 2.08, P 1.85, Q 2.54, R 2.52, S 2.9, T 2.07, V 1.96, W 1.93, Y 2.83
L20: A 2.37, C 2.3, D 3.55, E 2.7, F 2.3, G 2.52, H 2.23, M 2.4, N 2.68
